Measured values reported in IntAct's records for PubMed 22939626.

Target: vira_shifl virA (UniProt Q7BU69)
Sequence (Q7BU69 whole entry): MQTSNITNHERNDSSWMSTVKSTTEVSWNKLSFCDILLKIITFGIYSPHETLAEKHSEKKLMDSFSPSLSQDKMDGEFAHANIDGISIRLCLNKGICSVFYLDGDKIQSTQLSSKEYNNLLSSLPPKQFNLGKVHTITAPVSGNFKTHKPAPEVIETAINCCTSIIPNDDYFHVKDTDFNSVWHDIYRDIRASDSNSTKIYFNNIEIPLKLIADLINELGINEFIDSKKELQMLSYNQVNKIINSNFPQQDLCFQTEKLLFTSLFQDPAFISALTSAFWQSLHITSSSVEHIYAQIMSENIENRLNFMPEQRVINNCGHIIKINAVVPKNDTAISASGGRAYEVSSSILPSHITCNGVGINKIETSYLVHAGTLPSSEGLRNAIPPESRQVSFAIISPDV

Ras-related protein Rab-1A (Homo sapiens), P62820 S25N, sequence (P62820 whole entry S25N): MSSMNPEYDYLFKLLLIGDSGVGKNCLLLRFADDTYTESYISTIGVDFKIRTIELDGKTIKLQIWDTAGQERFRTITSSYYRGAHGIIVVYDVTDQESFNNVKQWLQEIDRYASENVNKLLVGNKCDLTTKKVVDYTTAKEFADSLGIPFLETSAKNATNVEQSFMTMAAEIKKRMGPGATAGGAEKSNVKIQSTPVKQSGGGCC
Ras-related protein Rab-1A (Homo sapiens), P62820 Q70L, sequence (P62820 whole entry Q70L): as the sequence (P62820 whole entry S25N) above, with N25S, Q70L counted along it

Substance	effect of a mutation on the interaction
Ras-related protein Rab-1A (Homo sapiens), P62820 Q70L	increasing interaction strength
Ras-related protein Rab-1A (Homo sapiens), P62820 S25N	decreasing interaction strength
